The record followed here is IntAct's records for PubMed 15350218.

The target of test [1] is syt2_rat Syt2 (UniProt P29101).
Test [2] deals with syt2_rat Syt2 (UniProt P29101). The source holds these as a separate data set.

Sequence of syt2_rat Syt2 (P29101 whole entry): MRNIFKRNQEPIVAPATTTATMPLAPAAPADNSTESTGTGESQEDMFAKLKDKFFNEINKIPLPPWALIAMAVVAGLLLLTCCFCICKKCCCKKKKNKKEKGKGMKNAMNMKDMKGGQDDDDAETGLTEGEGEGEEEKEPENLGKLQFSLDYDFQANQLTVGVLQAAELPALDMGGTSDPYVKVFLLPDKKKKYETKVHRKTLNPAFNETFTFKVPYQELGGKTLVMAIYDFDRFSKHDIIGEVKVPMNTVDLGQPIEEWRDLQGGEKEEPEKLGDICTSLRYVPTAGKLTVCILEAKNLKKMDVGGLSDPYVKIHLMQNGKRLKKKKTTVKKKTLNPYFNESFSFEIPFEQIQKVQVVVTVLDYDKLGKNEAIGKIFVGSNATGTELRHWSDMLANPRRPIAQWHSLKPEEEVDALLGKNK

With “Serine/threonine-protein kinase WNK1 (Rattus norvegicus (Rat)), Q9JIH7 V318D”, the “effect of a mutation on the interaction” value in the test with syt2_rat Syt2 [1] was “decreasing interaction”.

In the case of “Serine/threonine-protein kinase WNK1 (Rattus norvegicus (Rat)), Q9JIH7 V318E”, in the test with syt2_rat Syt2 [2], the “effect of a mutation on the interaction” value is recorded as “decreasing interaction”.
